{"source": "paper PMC13200438", "about": "(Journal of Nanobiotechnology, 2026)", "origin": "cited, not measured here", "conditions": "oral semaglutide (Rybelsus)", "data": [{"substance": "semaglutide", "values": [{"measurement": "oral (absolute) bioavailability", "value": "< 2", "unit": "%"}]}]}
